The target in assay [1] is 纯化的H7N9病毒HA蛋白 (H7N9病毒).
The target in assay [2] is H7N9病毒Nanjing-06病毒株的HA蛋白 (H7N9病毒). Kind of assay: cell-based or functional assay.
Assay [3] concerns the target H7N9病毒Suzhou-03病毒株的HA蛋白 (H7N9病毒). Kind of assay: cell-based or functional assay.
For assay [4], the target named is H7N9病毒Wuxi-01病毒株的HA蛋白 (H7N9病毒). Description: cell-based or functional assay.
Assay [5] concerns the target H7N9病毒Wuxi-02病毒株的HA蛋白 (H7N9病毒). Description: cell-based or functional assay.
Assay [6] deals with 纯化的H7N9病毒HA蛋白 (H7N9病毒). Kind of assay: ELISA, HA-coated plate, expression supernatant diluted 1:20, anti-human Fc-HRP. On the technique in general: ELISA stands for enzyme-linked immunosorbent assay.
The target of assay [7] is 纯化的H7N9病毒HA蛋白 (H7N9病毒). Description: ELISA, HA-coated plate, expression supernatant diluted 1:40, anti-human Fc-HRP.
In assay [8] the target is 纯化的H7N9病毒HA蛋白 (H7N9病毒). Description: ELISA, HA-coated plate, expression supernatant diluted 1:80, anti-human Fc-HRP.
The target in assay [9] is 纯化的H7N9病毒HA蛋白 (H7N9病毒). Description: ELISA, HA-coated plate, expression supernatant diluted 1:160, anti-human Fc-HRP.
Assay [10] deals with 纯化的H7N9病毒HA蛋白 (H7N9病毒). Kind of assay: ELISA, HA-coated plate, expression supernatant diluted 1:320, anti-human Fc-HRP.
The target in assay [11] is 纯化的H7N9病毒HA蛋白 (H7N9病毒). Description: ELISA, HA-coated plate, expression supernatant diluted 1:640, anti-human Fc-HRP.

Among the data in CN107011436A are OD450 and 中和100×TCID50病毒需要的抗体质量 values, retold here.

“And” between values parts separate entries of the source, which are not always exact repeats. Equal values may be shown once. Read-outs that look alike come from different tables or passages of the source.

B1: 抗H7N9病毒的单克隆抗体mAb6137 (antibody, V domains shown)
VH: EVQLVESGGGLVQPGRSLRLSCAASGFIFDDYAMHWVRQAPGKGLEWVSGISWNNNNRAYADSVKGRFTISRDSAKNSLYLQMNSLRAEDTALYYCAKDILSLNMVRGGDEYYGIDVWGQGTTVTVSS
VL: DIQLTQSPSSLSASVGDRVTITCQASQDINNYLNWYQQKPGKAPKLLIFDASNLETGVPSRFSGSGSGTDFTFTISSLQPEDIATYYCQQYGSLLTFGGGTKVDIKR
On to B1, for which the OD450 is 0.211 OD450 and 0.153 OD450 with 纯化的H7N9病毒HA蛋白 (H7N9病毒) [1]; 2.06 OD450 with 纯化的H7N9病毒HA蛋白 (H7N9病毒) [6]; 1.91 OD450 in the assay with 纯化的H7N9病毒HA蛋白 (H7N9病毒) [7]; 1.37 OD450 with 纯化的H7N9病毒HA蛋白 (H7N9病毒) [8]; 0.971 OD450 with 纯化的H7N9病毒HA蛋白 (H7N9病毒) [9]; 0.584 OD450 in the assay with 纯化的H7N9病毒HA蛋白 (H7N9病毒) [10]. The OD450 with 纯化的H7N9病毒HA蛋白 (H7N9病毒) [11] was determined as 0.35 OD450. The 中和100×TCID50病毒需要的抗体质量 was 20 ng in assay [2], 40 ng in [3], 40 ng in assay [4] and 80 ng in assay [5].
